Assay [1] concerns the target Myelin-associated glycoprotein (Homo sapiens) (UniProt P20916). To be noted: cited from earlier work.
Assay [2] has as its target TRTK-12 TRTK-12 (Homo sapiens) (UniProt P52907). The settings on record: cited from earlier work.
The target in another assay is SIP (Homo sapiens) (UniProt Q9HB71). The settings on record: cited from earlier work.
The target of assay [3] is p53 362-393 (Homo sapiens) (UniProt P04637). The settings on record: cited from earlier work.
The target in assay [4] is RAGE 129-336 (Homo sapiens) (UniProt Q15109). The settings on record: cited from earlier work.
Sequence of RAGE 129-336 (Homo sapiens) (Q15109 129-336): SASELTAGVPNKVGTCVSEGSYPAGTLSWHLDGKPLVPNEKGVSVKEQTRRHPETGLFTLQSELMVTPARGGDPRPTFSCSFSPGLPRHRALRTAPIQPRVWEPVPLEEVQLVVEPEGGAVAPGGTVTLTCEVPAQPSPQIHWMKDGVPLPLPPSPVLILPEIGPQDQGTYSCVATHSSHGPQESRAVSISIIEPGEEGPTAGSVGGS
For assay [5], the target named is S100B (UniProt P04271). The assay is described as follows: NMR titration.
Sequence of S100B (UniProt P04271) (P04271 2-92): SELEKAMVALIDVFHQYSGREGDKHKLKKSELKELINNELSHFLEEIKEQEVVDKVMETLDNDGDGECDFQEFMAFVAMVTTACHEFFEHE
For assay [6], the target named is S100B (UniProt P04271). Kind of assay: NMR titration. This is another data set of the same source.

pKd: −log10 of the molar value. Where two headings read alike, the source gives them in different places.

Sequence of S100B (from UniProt P04271) (P04271 2-92): as above
Sequence of S100A2 (P29034 whole entry): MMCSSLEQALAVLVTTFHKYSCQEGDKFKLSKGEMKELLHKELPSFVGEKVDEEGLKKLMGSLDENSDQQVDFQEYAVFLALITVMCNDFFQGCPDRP
Sequence of Myelin-associated glycoprotein (Homo sapiens) (P20916 20-626): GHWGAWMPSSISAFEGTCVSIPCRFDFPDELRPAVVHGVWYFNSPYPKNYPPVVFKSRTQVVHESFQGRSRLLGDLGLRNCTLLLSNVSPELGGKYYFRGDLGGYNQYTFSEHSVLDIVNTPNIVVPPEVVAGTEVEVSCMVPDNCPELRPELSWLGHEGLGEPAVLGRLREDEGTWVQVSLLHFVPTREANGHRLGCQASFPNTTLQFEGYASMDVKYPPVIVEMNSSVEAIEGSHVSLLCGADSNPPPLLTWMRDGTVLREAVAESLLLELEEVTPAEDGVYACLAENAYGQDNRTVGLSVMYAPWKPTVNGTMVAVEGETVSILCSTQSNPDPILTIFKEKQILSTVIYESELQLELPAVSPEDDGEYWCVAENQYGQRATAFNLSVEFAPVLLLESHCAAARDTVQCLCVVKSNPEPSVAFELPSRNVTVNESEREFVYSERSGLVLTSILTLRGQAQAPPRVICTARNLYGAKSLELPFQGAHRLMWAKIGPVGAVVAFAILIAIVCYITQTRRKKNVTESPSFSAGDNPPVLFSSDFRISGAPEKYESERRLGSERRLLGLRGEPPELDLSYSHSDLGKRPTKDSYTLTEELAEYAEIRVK
Sequence of S100A12 (P80511 2-92): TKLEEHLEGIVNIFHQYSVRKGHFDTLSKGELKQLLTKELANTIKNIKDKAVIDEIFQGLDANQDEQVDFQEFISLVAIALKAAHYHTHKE
Sequence of p53 362-393 (Homo sapiens) (P04637 362-393): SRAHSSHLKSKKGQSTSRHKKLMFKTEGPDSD
Sequence of SIP (Homo sapiens) (Q9HB71 2-228): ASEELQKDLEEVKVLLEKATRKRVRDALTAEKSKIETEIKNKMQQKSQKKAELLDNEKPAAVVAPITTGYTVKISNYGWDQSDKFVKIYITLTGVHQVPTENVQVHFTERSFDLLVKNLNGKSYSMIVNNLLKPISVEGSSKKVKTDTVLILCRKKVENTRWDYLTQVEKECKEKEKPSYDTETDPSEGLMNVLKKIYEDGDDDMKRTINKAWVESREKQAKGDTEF

The term pKd denotes the negative decadic logarithm of the Kd, by convention in mol/L. Turning to S100B (from UniProt P04271), the pKd in assay [1] was 5.15; in assay [2] it was 6.52; in the assay with SIP (Homo sapiens), 5.30.

As for S100A2 (from UniProt P29034), the pKd in assay [3] is 3.97.

For the substance S100A12 (from UniProt P80511), the pKd in assay [4] was 3.85.

On to “IC3-M28 (from UniProt P61169-2 288-315) (peptide)”, for which the pKd in the assay with S100B [5] and in the assay with S100B [6] was 3.83 throughout.

As for “IC3-C30 (from UniProt P61169-2 316-345) (peptide)”, in the assay with S100B [5], the pKd is 4.01.

Source of the values: paper PMC3196243.
